Laboratory results published in publication PMC4046112, “eIF2B is a decameric guanine nucleotide exchange factor with a γ2ε2 tetrameric core” (Nature Communications, 2014).

How the values were obtained:
[1] = biological target: T1, eIF2Bγ in the eIF2Bγε core complex (γ2ε2) (Saccharomyces cerevisiae, UniProt P09032); assay: photo-cross-linking and native nano-electrospray MS; type: binding; details: 10 mM 6-Thio-GTP; UV 365 nm 5 min on ice; 500 mM ammonium acetate; covalent (photo-cross-link); adduct on γ-subunit
T1 construct: gene GCD1; γε core co-overexpressed in yeast, γ-subunit C-terminally FLAG-tagged (GCD1-FLAG2-His6), anti-FLAG purified; GTP adduct seen on dissociated γ; with Translation initiation factor eIF2B subunit epsilon
T1 sequence (P09032 1-578): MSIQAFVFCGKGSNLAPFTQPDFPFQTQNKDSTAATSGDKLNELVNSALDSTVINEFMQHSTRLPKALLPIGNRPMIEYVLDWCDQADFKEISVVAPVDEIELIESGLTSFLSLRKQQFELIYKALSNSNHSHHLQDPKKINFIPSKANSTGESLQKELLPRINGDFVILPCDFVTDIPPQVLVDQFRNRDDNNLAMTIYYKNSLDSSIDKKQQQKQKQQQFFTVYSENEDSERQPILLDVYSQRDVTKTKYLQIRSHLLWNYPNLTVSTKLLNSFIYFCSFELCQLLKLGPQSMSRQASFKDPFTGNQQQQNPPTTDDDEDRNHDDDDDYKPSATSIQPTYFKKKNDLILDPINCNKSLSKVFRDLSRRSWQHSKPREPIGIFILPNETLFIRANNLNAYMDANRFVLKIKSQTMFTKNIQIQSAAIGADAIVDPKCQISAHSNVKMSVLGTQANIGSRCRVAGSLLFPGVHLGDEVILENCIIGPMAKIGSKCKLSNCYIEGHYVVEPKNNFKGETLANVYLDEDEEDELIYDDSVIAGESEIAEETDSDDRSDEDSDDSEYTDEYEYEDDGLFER
T1 sequence (P32501 1-712 partner): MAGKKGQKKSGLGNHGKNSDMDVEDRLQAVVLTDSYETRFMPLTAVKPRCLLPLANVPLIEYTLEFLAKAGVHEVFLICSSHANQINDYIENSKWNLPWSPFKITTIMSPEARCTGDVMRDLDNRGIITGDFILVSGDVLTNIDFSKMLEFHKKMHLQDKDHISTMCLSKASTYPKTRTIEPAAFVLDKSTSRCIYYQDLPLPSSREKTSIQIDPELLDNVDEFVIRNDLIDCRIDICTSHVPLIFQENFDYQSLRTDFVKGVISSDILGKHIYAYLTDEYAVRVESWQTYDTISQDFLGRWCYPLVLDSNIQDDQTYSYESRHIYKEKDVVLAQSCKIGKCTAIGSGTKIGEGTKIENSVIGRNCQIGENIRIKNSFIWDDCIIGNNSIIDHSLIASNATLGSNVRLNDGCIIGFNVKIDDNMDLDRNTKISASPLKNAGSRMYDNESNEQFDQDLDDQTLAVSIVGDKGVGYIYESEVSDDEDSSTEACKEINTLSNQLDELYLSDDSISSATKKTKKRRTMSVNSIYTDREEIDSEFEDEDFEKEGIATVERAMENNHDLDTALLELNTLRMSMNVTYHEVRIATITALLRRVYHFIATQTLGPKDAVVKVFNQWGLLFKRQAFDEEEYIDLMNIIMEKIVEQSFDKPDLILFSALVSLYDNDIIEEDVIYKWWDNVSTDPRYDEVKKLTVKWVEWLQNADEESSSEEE

[2] = biological target: the molecule itself; assay: native MS; FLAG-purified four-subunit eIF2Bβδγε in ammonium acetate, without and with 10% acetonitrile; octamer = two copies of each of four subunits
[3] = biological target: eIF2α phosphorylated at Ser51 (subunit of phosphorylated eIF2) (S. cerevisiae) (UniProt P20459); assay: label-free quantitative proteomics (iBAQ) of the purified complex; eIF2-eIF2B complex purified after phosphorylation of eIF2, trypsin digest, nanoLC-MS/MS, iBAQ intensities compared; eIF2B subunits relative to FLAG-tagged γ (set to 1), eIF2 subunits relative to α
[4] = biological target: T2, eIF2Bγ, FLAG-tagged (γ-subunit of yeast eIF2B) (S. cerevisiae, UniProt P09032 1-578); assay: cross-linking; BS3-d0/d4 (1:1) added to purified complexes (eIF2:eIF2B, four-subunit eIF2B, eIF2Bγε core), 30 min at 26 °C, trypsin digest, nanoLC-MS/MS, MassMatrix search; the text does not tell which cross-link came from which complex; details: both partners purified
T2 construct: eIF2B gamma subunit (GCD1), S. cerevisiae; Bait of all eIF2B complex purifications; also called GCD1-FLAG2-His6; source: S. cerevisiae strains overexpressing eIF2B subunits, purified (anti-FLAG resin, FLAG peptide elution); not shown: FLAG2, C-terminal, kept
T2 sequence (looked up): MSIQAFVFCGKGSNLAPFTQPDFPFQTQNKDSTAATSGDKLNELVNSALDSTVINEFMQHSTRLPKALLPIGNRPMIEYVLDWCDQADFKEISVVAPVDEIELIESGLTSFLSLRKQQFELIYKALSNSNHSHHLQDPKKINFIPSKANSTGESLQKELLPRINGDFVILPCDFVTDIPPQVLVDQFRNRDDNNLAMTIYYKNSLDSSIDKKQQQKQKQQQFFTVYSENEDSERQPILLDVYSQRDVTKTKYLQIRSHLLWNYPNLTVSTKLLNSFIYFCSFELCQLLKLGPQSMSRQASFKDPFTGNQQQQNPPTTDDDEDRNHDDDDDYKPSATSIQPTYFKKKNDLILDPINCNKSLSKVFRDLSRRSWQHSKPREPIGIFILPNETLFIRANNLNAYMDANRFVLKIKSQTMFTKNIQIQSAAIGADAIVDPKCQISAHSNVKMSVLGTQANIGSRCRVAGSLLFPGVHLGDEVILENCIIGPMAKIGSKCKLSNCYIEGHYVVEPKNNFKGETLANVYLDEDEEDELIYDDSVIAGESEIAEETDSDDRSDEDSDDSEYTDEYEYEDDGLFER

[5] = biological target: T3, eIF2Bα (α-subunit of yeast eIF2B) (S. cerevisiae, UniProt P14741 1-305); assay: as above; details: both partners purified
T3 construct: eIF2B alpha subunit (GCN3), S. cerevisiae; Subunit of the purified eIF2B complex, written alone for the subunit pairs; also called eIF2B α-subunit; GCN3
T3 sequence (looked up): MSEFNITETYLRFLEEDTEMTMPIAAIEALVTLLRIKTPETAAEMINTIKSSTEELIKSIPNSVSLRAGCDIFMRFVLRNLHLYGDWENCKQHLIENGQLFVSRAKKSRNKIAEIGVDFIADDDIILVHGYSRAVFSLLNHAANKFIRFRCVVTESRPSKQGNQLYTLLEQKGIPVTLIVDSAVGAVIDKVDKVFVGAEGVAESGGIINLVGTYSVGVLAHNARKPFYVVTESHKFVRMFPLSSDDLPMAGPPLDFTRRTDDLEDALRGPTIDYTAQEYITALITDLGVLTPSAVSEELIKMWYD

[6] = biological target: T4, eIF2Bδ (δ-subunit of yeast eIF2B) (S. cerevisiae, UniProt P12754 1-651); assay: as above; details: both partners purified
T4 construct: eIF2B delta subunit (GCD2), S. cerevisiae; Subunit of the purified eIF2B complexes, written alone for the subunit pairs; also called eIF2B δ-subunit; δ/Gcd2
T4 sequence (looked up): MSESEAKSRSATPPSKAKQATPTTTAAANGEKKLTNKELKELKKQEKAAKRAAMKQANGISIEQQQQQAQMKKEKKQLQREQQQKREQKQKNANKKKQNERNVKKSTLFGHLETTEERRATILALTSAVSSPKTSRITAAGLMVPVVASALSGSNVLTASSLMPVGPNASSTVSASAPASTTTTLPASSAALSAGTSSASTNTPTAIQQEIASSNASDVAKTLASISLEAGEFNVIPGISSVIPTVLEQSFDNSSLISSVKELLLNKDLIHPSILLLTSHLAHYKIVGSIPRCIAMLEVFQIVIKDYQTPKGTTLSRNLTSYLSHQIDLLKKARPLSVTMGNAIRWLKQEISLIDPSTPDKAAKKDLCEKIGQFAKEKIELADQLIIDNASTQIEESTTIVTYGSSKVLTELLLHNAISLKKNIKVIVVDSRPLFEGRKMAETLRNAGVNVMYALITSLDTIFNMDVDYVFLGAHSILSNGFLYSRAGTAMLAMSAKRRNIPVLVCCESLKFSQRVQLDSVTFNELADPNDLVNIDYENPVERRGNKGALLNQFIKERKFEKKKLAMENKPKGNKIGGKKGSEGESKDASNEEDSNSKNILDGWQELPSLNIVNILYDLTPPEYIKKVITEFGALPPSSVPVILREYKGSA

Nc1nc(=S)c2ncn([C@@H]3O[C@H](COP(=O)(O)OP(=O)(O)OP(=O)(O)O)[C@@H](O)[C@H]3O)c2[nH]1 [6-Thio-GTP]
photo-cross-linking and native nano-electrospray MS [1]: After incubation with 6-Thio-GTP and ultraviolet irradiation, the intensity of the GTP-bound population

B1: eIF2Bγε core complex (complex, S. cerevisiae)
chain 1: MSIQAFVFCGKGSNLAPFTQPDFPFQTQNKDSTAATSGDKLNELVNSALDSTVINEFMQHSTRLPKALLPIGNRPMIEYVLDWCDQADFKEISVVAPVDEIELIESGLTSFLSLRKQQFELIYKALSNSNHSHHLQDPKKINFIPSKANSTGESLQKELLPRINGDFVILPCDFVTDIPPQVLVDQFRNRDDNNLAMTIYYKNSLDSSIDKKQQQKQKQQQFFTVYSENEDSERQPILLDVYSQRDVTKTKYLQIRSHLLWNYPNLTVSTKLLNSFIYFCSFELCQLLKLGPQSMSRQASFKDPFTGNQQQQNPPTTDDDEDRNHDDDDDYKPSATSIQPTYFKKKNDLILDPINCNKSLSKVFRDLSRRSWQHSKPREPIGIFILPNETLFIRANNLNAYMDANRFVLKIKSQTMFTKNIQIQSAAIGADAIVDPKCQISAHSNVKMSVLGTQANIGSRCRVAGSLLFPGVHLGDEVILENCIIGPMAKIGSKCKLSNCYIEGHYVVEPKNNFKGETLANVYLDEDEEDELIYDDSVIAGESEIAEETDSDDRSDEDSDDSEYTDEYEYEDDGLFER
chain 2: MAGKKGQKKSGLGNHGKNSDMDVEDRLQAVVLTDSYETRFMPLTAVKPRCLLPLANVPLIEYTLEFLAKAGVHEVFLICSSHANQINDYIENSKWNLPWSPFKITTIMSPEARCTGDVMRDLDNRGIITGDFILVSGDVLTNIDFSKMLEFHKKMHLQDKDHISTMCLSKASTYPKTRTIEPAAFVLDKSTSRCIYYQDLPLPSSREKTSIQIDPELLDNVDEFVIRNDLIDCRIDICTSHVPLIFQENFDYQSLRTDFVKGVISSDILGKHIYAYLTDEYAVRVESWQTYDTISQDFLGRWCYPLVLDSNIQDDQTYSYESRHIYKEKDVVLAQSCKIGKCTAIGSGTKIGEGTKIENSVIGRNCQIGENIRIKNSFIWDDCIIGNNSIIDHSLIASNATLGSNVRLNDGCIIGFNVKIDDNMDLDRNTKISASPLKNAGSRMYDNESNEQFDQDLDDQTLAVSIVGDKGVGYIYESEVSDDEDSSTEACKEINTLSNQLDELYLSDDSISSATKKTKKRRTMSVNSIYTDREEIDSEFEDEDFEKEGIATVERAMENNHDLDTALLELNTLRMSMNVTYHEVRIATITALLRRVYHFIATQTLGPKDAVVKVFNQWGLLFKRQAFDEEEYIDLMNIIMEKIVEQSFDKPDLILFSALVSLYDNDIIEEDVIYKWWDNVSTDPRYDEVKKLTVKWVEWLQNADEESSSEEE
notes: eIF2B gamma subunit (GCD1), S. cerevisiae; eIF2B epsilon subunit (GCD6), S. cerevisiae; Seen as γε dimer (predominant) and γ2ε2 tetramer; the self row stands for two γε dimers joined in the tetramer; also called γε dimer; γ2ε2 tetramer; source: S. cerevisiae, purified by the FLAG-tagged γ-subunit (anti-FLAG resin); also formed from eIF2Bβδγε on adding 10% acetonitrile; not shown: FLAG2, …
stoichiometry N [2]: 4

B2: eIF2β (β-subunit of yeast eIF2) (natural protein, S. cerevisiae, UniProt P09064 1-285, looked up)
chain: MSSDLAAELGFDPALKKKKKTKKVIPDDFDAAVNGKENGSGDDLFAGLKKKKKKSKSVSADAEAEKEPTDDIAEALGELSLKKKKKKTKDSSVDAFEKELAKAGLDNVDAESKEGTPSANSSIQQEVGLPYSELLSRFFNILRTNNPELAGDRSGPKFRIPPPVCLRDGKKTIFSNIQDIAEKLHRSPEHLIQYLFAELGTSGSVDGQKRLVIKGKFQSKQMENVLRRYILEYVTCKTCKSINTELKREQSNRLFFMVCKSCGSTRSVSSIKTGFQATVGKRRRM
notes: eIF2 beta subunit (SUI3), S. cerevisiae; Subunit of the purified eIF2 complex, written alone for the subunit pairs; also called eIF2 β-subunit; SUI3
stoichiometry N [3]: 1.08
binding result [4]: binds
binding result [5]: binds
binding result [6]: binds
